From the supplement of paper PMC10567573

B1: LPCAT4 (parent)
chain: HDPLYGKLFSTYLRPPHTSRGTSQ
B2: TRIM55 (parent)
chain: FQASNPYLPTRGGTTMASGGRFRC

Variants of: B1
Test: protein stability index of a GFP-peptide fusion (GPS, HEK-293T) (PSI 1-6); higher = more stable
Conditions: c terminus: a fixed tail appended
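Further: lentivirally expressed fusions sorted by FACS into six bins by GFP to DsRed ratio, PSI derived from sequencing read proportions per bin multiplied by bin number.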

Protein stability index: each site, then its substitutions
T11: I 2.46 | Y 2.82 | V 2.24 | G 2.49 | A 4.05 | F 2.75 | R 2.94 | S 2.63 | P 2.48 | E 3.07 | D 3.46 | W 2.77 | C 2.48 | N 3.02 | L 2.39 | Q 3.43 | H 3.05 | K 3.45 | M 2.92
S19: A 2.72 | K 2.62 | W 1.95 | V 2.55 | P 2.7 | I 2.79 | C 2.91 | E 2.44 | Y 2.38 | L 2.36 | D 3.1 | G 2.8 | F 2.07 | Q 2.51 | T 2.61 | M 2.35 | H 2.29 | N 3.12 | R 2.74
S23: G 2.18 | H 2.73 | A 3 | L 2.39 | T 2.66 | Q 2.52 | K 2.51 | D 3.17 | C 2.61 | V 2.49 | M 2.34 | N 2.77 | Y 2.19 | E 2.64 | P 2.87 | F 2.09 | W 2.4 | R 2.45 | I 2.3
T22: G 2.75 | M 2.72 | W 1.98 | L 2.81 | H 2.81 | S 2.74 | E 3.04 | F 2.42 | I 2.22 | K 2.61 | D 2.6 | Y 2.13 | C 2.43 | R 2.48 | P 2.59 | V 2.12 | N 2.8 | A 2.66 | Q 2.32
T18: N 3.05 | G 2.41 | P 2.45 | H 2.61 | W 2.12 | Y 2.29 | V 2.68 | S 2.3 | C 2.66 | A 2.52 | D 2.83 | I 2.52 | M 2.57 | Q 2.61 | E 2.6 | R 2.57 | F 2.24 | L 2.42 | K 2.65
S10: D 4.06 | W 2.44 | Y 1.67 | M 2.72 | F 1.96 | R 3.02 | Q 3.78 | E 4.21 | V 2.64 | A 2.96 | L 2.96 | I 2.49 | T 3.63 | K 3.46 | C 1.97 | H 3.8 | P 4.13 | N 3.97 | G 3.34
F9: S 4.74 | R 4.13 | P 3.65 | Q 4.37 | V 4.24 | Y 3.8 | N 4.76 | T 4.12 | W 2.43
H17: N 2.59 | M 2.43 | V 2.53 | F 2.9 | I 2.43 | Y 2.53 | L 2.66 | S 2.31 | P 2.99 | C 2.7 | E 3.22 | A 2.79 | W 2.19 | K 2.38 | D 2.82 | R 2.3 | G 2.25 | T 2.82 | Q 2.61
P16: Y 2.22 | S 2.67 | N 2.94 | T 2.76 | L 2.68 | R 2.77 | M 3.13 | I 2.41 | A 2.2 | E 3.19 | C 2.26 | W 2.42 | K 3.01 | F 1.77 | H 2.52 | G 3.01 | D 3.37 | Q 3.27 | V 2.46
P15: Y 2.52 | F 2.08 | G 3.2 | A 2.7 | I 2.32 | C 2.11 | Q 2.47 | L 2.27 | T 1.88 | M 2.51 | W 2.37 | N 2.36 | R 2.85 | E 2.13 | H 2.47 | S 2.48 | K 2.6 | D 3.16 | V 2.42
R14: Y 2.81 | I 3.17 | D 3.9 | H 3.28 | A 3.08 | L 2.32 | Q 2.83 | T 3.09 | F 2.81 | S 2.69 | M 2.79 | P 3.71 | K 2.66 | E 3.4 | W 2.52 | G 3.73 | N 3.04 | V 3.17 | C 2.78
Y12: M 2.76 | P 4.14 | L 2.85 | H 3.31 | A 3.74 | D 4.06 | G 3.36 | I 3.11 | Q 3.53 | W 2.53 | F 2.8 | E 4.3 | T 3.95 | R 3.76 | S 3.97 | K 3.91 | N 3.4 | V 2.92 | C 3.01
L13: G 3.62 | W 2.77 | K 3.44 | V 3.72 | P 3.21 | I 3.06 | D 4.11 | Y 2.78 | M 3.1 | C 2.77 | H 3.88 | F 3.21 | T 3.72 | R 3.39 | Q 4.06 | A 3.73 | E 3.99 | S 4.04 | N 4.16
R20: S 2.58 | Q 2.85 | M 2.08 | A 2.78 | K 2.8 | F 2.17 | E 3.53 | T 2.67 | V 2.29 | H 2.86 | I 2.43 | L 2.19 | Y 2.3 | W 2.2 | N 2.56 | G 2.83 | C 2.36 | D 2.67 | P 2.66
Q24: C 2.64 | W 2.13 | K 2.56 | A 2.28 | P 2.43 | S 2.72 | T 2.53 | D 3.28 | E 3.01 | F 2.28 | N 2.78 | V 2.42 | R 2.39 | H 2.3 | M 2.45 | I 2.11 | Y 2.07 | G 2.36 | L 2.29
G21: V 2.82 | F 2.46 | N 2.42 | Y 1.87 | M 2.67 | H 2.11 | E 2.69 | R 2.42 | S 2.67 | L 2.48 | A 2.95 | T 2.49 | C 2.51 | W 2 | D 3.4 | K 2.55 | P 2.56 | Q 2.95 | I 2.41

Variants of: B2
Test: as above
Conditions: c terminus: a fixed tail appended

Protein stability index of substitutions, site by site:
A3: D 2.71 | C 1.32
F1: Y 2.06 | C 2.2 | N 3.55 | T 3.49 | S 3.52 | I 3.13 | W 2.58 | A 3.51 | M 3.4 | E 3.59 | D 3.43 | G 3.91 | Q 3.91 | P 3.91 | V 3.16 | K 3.41 | H 3.24 | R 3.57 | L 3.37
Q2: Y 2.2 | G 1.9 | T 1.68 | F 2.03 | H 2.99 | W 2.3 | K 2.85 | P 1.61 | V 1.74 | C 1.44 | N 2.68 | R 2.68 | A 2.17 | M 2 | D 3.43 | E 3.38 | S 2.13 | L 1.94 | I 2.22
